# Source: patent US7109015B2, “Removal of N-terminal methionine from proteins by engineered methionine aminopeptidase” (Academia Sinica, priority 2004, dated 2006)
# Like-named read-outs stand apart in the source and are kept apart here.
# Key:
# RC-RNase2 = RC-RNase2 (Escherichia coli, UniProt P0AE18, M206T/Q233G); details: substrate MQNEW (SEQ ID NO:17)-RC2; solubility −
# Source text: (§1) The rpr (AF332139) gene encoding for the target protein, onconase, from Rana pipiens was tagged with NdeI and BamHI site at the 5′ and 3′ end, respectively, and inserted downstream of T7 promoter in the expression vector pET22b (Novagen) (Liao et al., 2003; Huang et al., 1998; Liao et al., 2000). The other target proteins were also cloned by the same method, including RC-RNase L1 (AF288642.2), RC-RNase 2 (AF242553), RC-RNase 3 (AF242554), RC-RNase 4 (AF242555), RC-RNase6 (AF242556) from Rana catesbeiana, CA150 (a transcription elongation regulator 1; NM_006706) and glutathione S-transferase (M14654).
# (§2) The Escherichia coli methionine aminopeptidase gene (Accession Number M 15106) or its mutant was fused with the T7 promoter by three steps of PCR and inserted into the same pET22b vector containing a target protein, as described above, through SacI and HindIII. […] The second PCR was performed using the PCR product from step 1 as 5′ megaprimer, oligonucleotide 3 (5′[…]3′; SEQ ID NO:4) as 3′ primer, and the E. coli MetAP gene (M15101) as template (Huang et al., 1998; Ben-Bassat et al., 1987). The third PCR was to amplify the second PCR product using oligonucleotide 1 and oligonucleotide 3 as primers. The genes encoding the target protein and E. coli MetAP have their own T7 RNA polymerase promoter, but they may be transcribed into the same RNA molecule for cotranslation because only one transcription terminator exists, downstream of the MetAP gene. Alternatively, the MetAP gene alone may be directly subcloned into vector pET29b through the SacI and HindIII site.
# (§3) The MetAP was expressed alone or co-expressed with a target protein, i.e., onconase and RC-RNaseL1, in E. coli BL21 (DE3) in the presence of 0.5 mM IPTG at 37° C.
# (§4) Proteins in the cell pellet or in the soluble fraction were separated by 13.3% SDS-PAGE and contact-transferred to ProBlott™ membrane (Applied Bioystems) in transfer buffer (10 mM Tris-HCl, pH 7.5, 50 mM NaCl, 2 mM EDTA, 0.5 mM 2-mercaptoethanol) overnight. The five N-terminal residues of the transferred protein were determined by Edman degradation. The percentage of Met removal was calculated by dividing the amount of proteins initiated with the penultimate residue with the amount of total proteins (including proteins initiated with the penultimate residue and unprocessed protein initiated with Met) after the first degradation cycle. In theory, this percentage should remain the same after each degradation cycle. Therefore, in order to avoid experimental variation, the same calculation was made from five consecutive degradation cycles, e.g., M, Q, N, W and L for onconase. The efficiency of Met removal is reported as the mean values of at least three cycles. The mass spectrum analysis was carried out as described previously (Liao et al., 2003).
# [1] = biological target: glutathione S-transferase (GST) (Escherichia coli, UniProt P0AE18, M206T/Q233G); details: substrate MQDIL (SEQ ID NO:21)-GST
# Source text: as §1, §2, §3, §4
# RC-RNase6 = RC-RNase6 (Escherichia coli, UniProt P0AE18, M206T/Q233G); details: substrate MQDWD (SEQ ID NO:12)-RC6; solubility −
# Source text: as §1, §2, §3, §4
# [2] = biological target: CA150, a transcription elongation regulator 1 (Escherichia coli, UniProt P0AE18, M206T/Q233G); details: substrate MLAGA (SEQ ID NO:20)-CA150; solubility +
# Source text: as §1, §2, §3, §4
# RC-RNase3 = RC-RNase3 (Escherichia coli, UniProt P0AE18, M206T/Q233G); details: substrate MQDWE (SEQ ID NO:11)-RC3; solubility −
# Source text: as §1, §2, §3, §4
# RC-RNaseL1 = RC-RNaseL1 (Escherichia coli, UniProt P0AE18, M206T/Q233G); details: solubility −
# Source text: as §1, §2, §3, §4
# synthetic oligopeptides = assay type: biochemical; details: for Specific activity (unit/mg): 4 mM oligopeptide, pH 7.5, 37° C.
# [3] = substrate MQNWA (SEQ ID NO:18)-RCL1
molecule,measurement,setting,value
MetAP-*TG (protein) AISIKTPEDIEKMRVAGRLAAEVLEMIEPYVKPGVSTGELDRICNDYIVNEQHAVSACLGYHGYPKSVCISINEVVCHGIPDDAKLLKDGDIVNIDVTVIKDGFHGDTSKMFIVGKPTIMGERLCRITQESLYLALRMVKPGINLREIGAAIQKFVEAEGFSVVREYCGHGIGRGFHEEPQVLHYDSRETNVVLKPGMTFTIEPTVNAGKKEIRTMKDGWTVKTKDRSLSAGYEHTIVVTDNGCEILTLRKDDTIPAIISHDE,Catalytic activity (%): percent of penultimate residue removed,RC-RNase2,56%
same,Catalytic activity (%): removal of N-terminal Met,RC-RNase2,80%
same,Catalytic activity (%): removal of N-terminal Met,"[1]; solubility +, same vector",87%
same,Catalytic activity (%): removal of N-terminal Met,"[1]; solubility +, target in pET22b co-transformed with MetAP in pET29b",71%
same,Catalytic activity (%): removal of N-terminal Met,"[1]; solubility −, same vector",85%
same,Catalytic activity (%): removal of N-terminal Met,"[1]; solubility −, target in pET22b co-transformed with MetAP in pET29b",70%
same,Catalytic activity (%): removal of N-terminal Met,RC-RNase6,82%
same,Catalytic activity (%): percent of penultimate residue removed,[2],71%
same,Catalytic activity (%): removal of N-terminal Met,[2],100%
same,Catalytic activity (%): removal of N-terminal Met,RC-RNase3,96%
same,Catalytic activity (%): removal of N-terminal Met,RC-RNaseL1; substrate MQDWA (SEQ ID NO:19)-RCL1,99%
same,Catalytic activity (%): percent of penultimate residue removed,RC-RNaseL1; [3],62%
same,Catalytic activity (%): removal of N-terminal Met,RC-RNaseL1; [3],96%
same,In vitro catalytic activity,synthetic oligopeptides; oligopeptides ranging from tetra- to dodecapeptides with Ala at the penultimate site,high catalytic activity
same,Specific activity (unit/mg),synthetic oligopeptides; substrate MADY (SEQ ID NO:7),72 ± 10 unit/mg
same,Specific activity (unit/mg),synthetic oligopeptides; substrate MADYLT (SEQ ID NO:8),116 ± 4 unit/mg
same,Specific activity (unit/mg),synthetic oligopeptides; substrate MQDYLT (SEQ ID NO:9),0.42 ± 0.02 unit/mg
same,Specific activity (unit/mg),synthetic oligopeptides; substrate […] (SEQ ID NO:5),73 ± 15 unit/mg
same,Specific activity (unit/mg),synthetic oligopeptides; substrate […] (SEQ ID NO:6),0.59 ± 0.07 unit/mg
